Molecular target: Fas (CD95) expressed on vascular smooth muscle cells (human) (UniProt P25445)
Experiment: cell-based or functional assay

Chain of UniProt P25445 (P25445 26-335): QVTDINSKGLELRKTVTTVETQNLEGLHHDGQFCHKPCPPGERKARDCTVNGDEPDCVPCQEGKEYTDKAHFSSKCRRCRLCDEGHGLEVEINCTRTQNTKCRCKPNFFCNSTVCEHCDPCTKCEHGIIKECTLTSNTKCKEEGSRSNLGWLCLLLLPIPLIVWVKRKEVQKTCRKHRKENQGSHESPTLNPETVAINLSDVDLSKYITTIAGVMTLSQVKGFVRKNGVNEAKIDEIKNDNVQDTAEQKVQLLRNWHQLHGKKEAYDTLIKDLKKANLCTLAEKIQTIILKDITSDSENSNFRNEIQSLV

“anti-Fas antibody IgM clone CH-11 (05-201 Upstate)” showed a percent of apoptotic cells (hypodiploid DNA content) 16 h after treatment, A20-expressing SMC of 33%, a percent of apoptotic cells (hypodiploid DNA content) 16 h after αFas treatment, non-infected (NI) SMC of 1.9% and a percent of apoptotic cells (hypodiploid DNA content) 16 h after αFas treatment, rAd.β-gal-infected SMC of 2.34%. The percent of apoptotic cells after αFas with Actinomycin D (150 nM), NI and rAd.β-gal infected SMC was 28 to 35%.

From patent US20030207838A1
